Measurements reported in US20200262867A1 (WNTRX PHARMACEUTICALS, published 2020).
Values belong to the binder of their own block, whether it stands above or below them. Bridges are numbered along the chain shown (N, C = ends). Primed or numbered codes have the meaning given here. Where no end group is shown, it is not given here. [ ]: non-standard residue; d: D form. The star is where a group is joined. S5′ = (S)-2-(4'-pentenyl)alanine, olefinic stapling residue closed by ring-closing metathesis; NMeQ′ = N-methylglutamine (N-alpha-methyl, stereo named both D and L in the filing); Phe(3,4-Cl2) = N[C@@H](Cc1ccc(Cl)c(Cl)c1)C(=O)O; PEG4″ = PEG4 (tetraethylene glycol) spacer; Phe(4-Cl) = N[C@@H](Cc1ccc(Cl)cc1)C(=O)O; Phe(4-F) = N[C@@H](Cc1ccc(F)cc1)C(=O)O; 2Nal = N[C@@H](Cc1ccc2ccccc2c1)C(=O)O; Palmitoyl = CCCCCCCCCCCCCCCC(=O)*; hArg = N=C(N)NCCCC[C@H](N)C(=O)O; NMeQ = CN[C@@H](CCC(N)=O)C(=O)O; Cha = N[C@@H](CC1CCCCC1)C(=O)O; Cba = N[C@@H](CC1CCC1)C(=O)O; S5 = C=CCCC[C@](C)(N)C(=O)O; NMeC = CN[C@@H](CS)C(=O)O

Target: T1, β-catenin (UniProt P35222 1-781, limits assumed)
T1 construct: also called beta-catenin
T1 sequence (looked up): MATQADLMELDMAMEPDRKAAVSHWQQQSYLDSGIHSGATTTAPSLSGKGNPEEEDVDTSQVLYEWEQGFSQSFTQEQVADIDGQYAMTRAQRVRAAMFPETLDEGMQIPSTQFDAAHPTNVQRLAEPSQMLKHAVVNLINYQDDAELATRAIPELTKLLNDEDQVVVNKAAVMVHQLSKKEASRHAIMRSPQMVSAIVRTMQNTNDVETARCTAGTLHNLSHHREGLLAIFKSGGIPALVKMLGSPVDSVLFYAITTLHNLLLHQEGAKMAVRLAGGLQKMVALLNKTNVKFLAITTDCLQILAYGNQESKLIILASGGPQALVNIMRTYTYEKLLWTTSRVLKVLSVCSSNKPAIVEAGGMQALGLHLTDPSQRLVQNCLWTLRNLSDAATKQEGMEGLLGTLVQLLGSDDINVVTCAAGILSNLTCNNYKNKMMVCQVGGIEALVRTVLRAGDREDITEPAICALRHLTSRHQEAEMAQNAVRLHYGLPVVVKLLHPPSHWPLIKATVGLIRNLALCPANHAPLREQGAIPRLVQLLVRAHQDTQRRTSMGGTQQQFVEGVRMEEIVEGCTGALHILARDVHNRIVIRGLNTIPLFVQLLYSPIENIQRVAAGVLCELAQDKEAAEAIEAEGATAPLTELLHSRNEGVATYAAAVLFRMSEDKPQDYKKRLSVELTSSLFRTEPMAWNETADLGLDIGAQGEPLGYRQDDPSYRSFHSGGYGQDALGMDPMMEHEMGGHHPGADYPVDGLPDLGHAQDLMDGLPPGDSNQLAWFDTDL
Experiment: ALPHA Screen (BCL9/β-catenin);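 note: bead proximity readout with the polypeptide linked to donor beads and β-catenin fixed on acceptor beads, their binding bringing the beads close enough to emit signal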

- IC50: 2.25 µM
B1: SEQ ID NO: 141 (peptide)
peptide: {4‑(trifluoromethyl)benzoic acid}-L[NMeQ]TLR[S5]IQR[S5][Cba][2Nal]-NH2
modifications: staple 6-10; not fully specified
notes: the footnote mark in T0158 is printed 19, seemingly for 10

- IC50: 0.34 µM
B2: SEQ ID NO: 171 (peptide)
peptide: Ac-HRQRSLQTLR[S5]IQ[hArg][S5][Cba][2Nal]-NH2
modifications: staple 11-15

- IC50: 7.68 µM
B3: SEQ ID NO: 77 (peptide)
peptide: Ac-LQTLR[S5]IQR[S5]A[2Nal]-NH2
modifications: staple 6-10

- IC50: 11.4 µM
B4: SEQ ID NO: 22 (peptide)
peptide: Ac-LQTAR[S5]AQR[S5]L[2Nal]-NH2
modifications: staple 6-10; not fully specified; printed as LQTARXAQRXL(2-Nal)

- IC50: 30 µM
B5: SEQ ID NO: 23 (peptide)
peptide: Ac-LQTLR[S5]AQR[S5]A[2Nal]-NH2
modifications: staple 6-10; not fully specified; printed as LQTLRXAQRXA(2-Nal)

- IC50: 7.61 µM
B6: SEQ ID NO: 21 (peptide)
peptide: Ac-AQTAR[S5]IQR[S5]L[2Nal]-NH2
modifications: staple 6-10
SMILES: CC[C@H](C)[C@@H]1NC(=O)[C@@](C)(NC(=O)[C@H](CCCNC(=N)N)NC(=O)[C@H](C)NC(=O)[C@@H](NC(=O)[C@H](CCC(N)=O)NC(=O)[C@H](C)NC(C)=O)[C@@H](C)O)CCCC=CCCC[C@@](C)(C(=O)N[C@@H](CC(C)C)C(=O)N[C@@H](Cc2ccc3ccccc3c2)C(N)=O)NC(=O)[C@H](CCCNC(=N)N)NC(=O)[C@H](CCC(N)=O)NC1=O

- IC50: 50 µM
B7: SEQ ID NO: 99 (peptide)
peptide: Ac-LQTLR[S5′]IQE[S5′]L[2Nal]-NH2
modifications: staple 6-10

- IC50: 14.4 µM
B8: SEQ ID NO: 100 (peptide)
peptide: Ac-LQTLK[S5]IQR[S5]L[2Nal]-NH2
modifications: staple 6-10

- IC50: 47.1 µM
B9: SEQ ID NO: 98 (peptide)
peptide: Ac-LQTLE[S5′]IQR[S5′]L[2Nal]-NH2
modifications: staple 6-10

- IC50: 6.29 µM
B10: SEQ ID NO: 75 (peptide)
peptide: Ac-LQTAR[S5]IQR[S5]L[2Nal]-NH2
modifications: staple 6-10

- IC50: 8.99 µM
B11: SEQ ID NO: 76 (peptide)
peptide: Ac-LQTLR[S5]AQR[S5]L[2Nal]-NH2
modifications: staple 6-10

- IC50: 10.6 µM
B12: SEQ ID NO: 101 (peptide)
peptide: Ac-LQTLR[S5]IQK[S5]L[2Nal]-NH2
modifications: staple 6-10

- IC50: 0.063 µM
B13: SEQ ID NO: 196 (peptide)
peptide: Ac-HRQRSLQTLR[S5]IQR[S5][Phe(4-Cl)][2Nal]-NH2
modifications: staple 11-15
SMILES: CC[C@H](C)[C@@H]1NC(=O)[C@@](C)(NC(=O)[C@H](CCCNC(=N)N)NC(=O)[C@H](CC(C)C)NC(=O)[C@@H](NC(=O)[C@H](CCC(N)=O)NC(=O)[C@H](CC(C)C)NC(=O)[C@H](CO)NC(=O)[C@H](CCCNC(=N)N)NC(=O)[C@H](CCC(N)=O)NC(=O)[C@H](CCCNC(=N)N)NC(=O)[C@H](Cc2c[nH]cn2)NC(C)=O)[C@@H](C)O)CCCC=CCCC[C@@](C)(C(=O)N[C@@H](Cc2ccc(Cl)cc2)C(=O)N[C@@H](Cc2ccc3ccccc3c2)C(N)=O)NC(=O)[C@H](CCCNC(=N)N)NC(=O)[C@H](CCC(N)=O)NC1=O

- IC50: 0.294 µM
B14: SEQ ID NO: 202 (peptide)
peptide: Ac-HR[NMeQ′]RSL[NMeQ′]TLR[S5]IQR[S5][Phe(4-F)][2Nal]-NH2
modifications: staple 11-15; not fully specified; printed as HR(N-methylQ)RSL(N-methylQ)TLRXIQRX(4-F-Ph)(2-Nal), X/X stapled, (S) α-methyl, N-terminal Ac, C-terminal NH2

- IC50: 0.312 µM
B15: SEQ ID NO: 203 (peptide)
peptide: Ac-HR[NMeQ′]RSL[NMeQ′]TLR[S5]IQR[S5][Phe(3,4-Cl2)][2Nal]-NH2
modifications: staple 11-15; not fully specified; printed as HR(N-methylQ)RSL(N-methylQ)TLRXIQRX(3,4-diCl-Ph)(2-Nal), X/X stapled, (S) α-methyl, N-terminal Ac, C-terminal NH2

- IC50: 0.324 µM
B16: SEQ ID NO: 200 (peptide)
peptide: Ac-HRQRS[Cha][NMeQ′]TLR[S5]IQR[S5][Phe(4-F)][2Nal]-NH2
modifications: staple 11-15; not fully specified; printed as HRQRS(Cha)(N-methylQ)TLRXaa3IQRXaa6(4-F-Ph)(2-Nal)

- IC50: 0.305 µM
B17: SEQ ID NO: 211 (peptide)
peptide: {Palmitoyl-PEG4″}-HRQRS[Cha][NMeQ′]TLR[S5]IQR[S5][Cha][2Nal]-NH2
modifications: staple 11-15; not fully specified; printed as HRQRS(Cha)(N-methylQ)TLRXaa3IQRXaa6(Cha)(2-Nal)

- IC50: 0.155 µM
B18: SEQ ID NO: 216 (peptide)
peptide: Ac-CRQRSLQTLR[S5]IQR[S5][Cha][2Nal]-NH2
modifications: staple 11-15
SMILES: CC[C@H](C)[C@@H]1NC(=O)[C@@](C)(NC(=O)[C@H](CCCNC(=N)N)NC(=O)[C@H](CC(C)C)NC(=O)[C@@H](NC(=O)[C@H](CCC(N)=O)NC(=O)[C@H](CC(C)C)NC(=O)[C@H](CO)NC(=O)[C@H](CCCNC(=N)N)NC(=O)[C@H](CCC(N)=O)NC(=O)[C@H](CCCNC(=N)N)NC(=O)[C@H](CS)NC(C)=O)[C@@H](C)O)CCCC=CCCC[C@@](C)(C(=O)N[C@@H](CC2CCCCC2)C(=O)N[C@@H](Cc2ccc3ccccc3c2)C(N)=O)NC(=O)[C@H](CCCNC(=N)N)NC(=O)[C@H](CCC(N)=O)NC1=O

- IC50: 0.384 µM
B19: SEQ ID NO: 217 (peptide)
peptide: Ac-[NMeC]RQRSLQTLR[S5]IQR[S5][Cha][2Nal]-NH2
modifications: staple 11-15
SMILES: CC[C@H](C)[C@@H]1NC(=O)[C@@](C)(NC(=O)[C@H](CCCNC(=N)N)NC(=O)[C@H](CC(C)C)NC(=O)[C@@H](NC(=O)[C@H](CCC(N)=O)NC(=O)[C@H](CC(C)C)NC(=O)[C@H](CO)NC(=O)[C@H](CCCNC(=N)N)NC(=O)[C@H](CCC(N)=O)NC(=O)[C@H](CCCNC(=N)N)NC(=O)[C@H](CS)N(C)C(C)=O)[C@@H](C)O)CCCC=CCCC[C@@](C)(C(=O)N[C@@H](CC2CCCCC2)C(=O)N[C@@H](Cc2ccc3ccccc3c2)C(N)=O)NC(=O)[C@H](CCCNC(=N)N)NC(=O)[C@H](CCC(N)=O)NC1=O

- IC50: 6.07 µM
B20: SEQ ID NO: 142 (peptide)
peptide: {5‑phenylvaleric acid}-L[NMeQ]TLR[S5]IQR[S5][Cba][2Nal]-NH2
modifications: staple 6-10; not fully specified

- IC50: 0.43 µM
B21: SEQ ID NO: 170 (peptide)
peptide: Ac-HRQRSLQTL[hArg][S5]IQR[S5][Cba][2Nal]-NH2
modifications: staple 11-15

- IC50: 27.9 µM
B22: SEQ ID NO: 53 (peptide)
peptide: LQTLRDIQRML[2Nal]PD
